The target in experiment [1] is T1, human IGF-1R (native, on cells) (human, UniProt P08069 31-1367). The experiment in a line: cell-based or functional assay.
Experiment [2] addresses T1, human IGF-1R (native, on cells). Description: FACS titration, MCF-7. On the procedure:
(§1) The binding properties of a series of anti-IGF-1R antibodies were evaluated by FACS analyses on the human MCF-7 breast adenocarcinoma cell line (ATCC#HTB-22) using increasing antibody concentrations. For that purpose, cells (1×10⁶ cells/ml) were incubated with anti-IGF-1R antibodies for 20 min. at 4° C. in FACS buffer (PBS, 0.1% BSA, 0.01% NaN₃). They were then washed 3 times and incubated with the appropriate secondary antibody coupled with Alexa 488 for 20 additional minutes at 4° C. in the dark before being washed 3 times in FACS buffer. The binding of anti-IGF-1R antibodies was immediately performed on viable cells which were identified using propidium iodide (that stains dead cells). The maximum of signal intensity obtained with each antibody was designed as Bₘₐₓ and expressed in mean of fluorescence intensity (MFI). The EC₅₀ of binding expressed in molarity (M) was calculated using a nonlinear regression analysis (GraphPad Prims 4.0).

For experiment [3] the target is unchanged. Description: cell-based or functional assay. This is another data set of the same source.
Experiment [4] has as its target T2, monkey IGF-1R (on COS-7 cells) (African green monkey). Description: cell-based or functional assay.
Experiment [5] concerns the target T1, human IGF-1R (native, on cells). Description: FACS titration, hIGF-1R transfected cells. On the procedure: Briefly, increasing concentrations of chimeric mAbs were incubated with cells for 20 min at 4° C. in FACS buffer (PBS, 0.1% BSA, 0.01% NaN₃). Cells were then washed 3 times and incubated with the appropriate secondary antibody coupled with Alexa 488 before being incubated for 20 additional minutes at 4° C. in the dark and then washed 3 times in FACS buffer. The binding of anti-IGF-1R antibodies was immediately performed on viable cells which were identified using propidium iodide (that stains dead cells). The binding EC₅₀ expressed in molarity (M) was calculated using a nonlinear regression analysis (GraphPad Prims 4.0).

Experiment [6] deals with T3, soluble recombinant Cynomolgus monkey IGF-1R with C-terminal 10-His tag (produced in house) (Cynomolgus monkey).
T3 construct: extracellular domain; also called Cynomolgus IGF-1R ECD; Macaca IGF-1R
Description: SPR, common fit of the human and cynomolgus sensorgrams. On the procedure: (§2) The recognition experiments were run on a Biacore X100 device using a CM5 sensor chip activated by an anti-Tag His antibody (His capture kit GE Healthcare catalogue number 28-9950-56). More than 11000 RU of antibodies are chemically grafted on the carboxymethyldextan matrix using the amine kit chemistry. The experiments were carried out at 25° C. with a flow rate of 30 μl/min using the HBS-EP buffer (GE Healthcare) as the running and sample dilution buffer.
(§3) Solution of a second antibody is either injected in the same conditions on both flowcells or only on the second flowcell. […] At the end of the fifth injection the running buffer was passed in order to define the dissociation rate. The surface was then regenerated with an injection of a 10 mM Glycine, HCl pH 1.5 buffer during 30s.
(§4) The resulting sensorgrams were analysed using the Biaevaluation software with a 1:1 model. […] The quality of the fitting was assessed by a Chi2/Rmax ratio lower than 0.05 RU.

The target of experiment [7] is T1, human IGF-1R (native, on cells). The experiment in a line: FACS on MCF-7 cells, 4°C; inset table, axis log [M]. As for the experimental part: as §1
The target of experiment [8] is T2, monkey IGF-1R (on COS-7 cells). Description: FACS on COS-7 cells, 4°C; inset table, axis log [M]. As for the experimental part:
In order to evaluate the binding of anti-IGF-1R antibodies on monkey IGF-1R, the binding of both murine and chimeric anti-hIGF-1R antibodies was evaluated by FACS analyses on COS-7 cell line using increasing antibody concentrations. Cells (1×10⁶ cells/ml) were incubated with anti-IGF-1R antibodies for 20 minutes at 4° C. in FACS buffer (PBS, 0.1% BSA, 0.01% NaN₃). Then, cells were washed 3 times and incubated with the appropriate secondary antibody coupled with Alexa 488 before being incubated for 20 additional minutes at 4° C. in the dark and finally washed 3 times in FACS buffer. The binding of anti-IGF-1R antibodies was immediately evaluated on viable cells identified using propidium iodide (that stains dead cells). The binding EC₅₀ expressed in molarity (M) was calculated using a nonlinear regression analysis (GraphPad Prims 4.0).

Experiment [9] addresses T3, soluble recombinant Cynomolgus monkey …. The experiment in a line: SPR Biacore X100, single cycle kinetics, His-captured IGF-1R ~160 RU, 1:1 model. As for the experimental part:
as §2, §3, §4
For orientation: In SPR one partner is held on a chip, and binding of the other changes the refractive index at the surface.

The target of experiment [10] is T4, chimerical h/m IGF-1R construct C2 (human/mouse chimera, UniProt Q60751 31-937 (mouse entry)).
T4 construct: soluble form, supernatant
Description: SPR (Biacore X100), ratio of IGF-1R binding level to c208F2 capture level, supernatants diluted 10 times.

Experiment [11] concerns the target T5, chimerical h/m IGF-1R construct C7 (human/mouse chimera, UniProt P08069 31-932, limits assumed).
T5 construct: 17 mouse specific residues
Described as above.

T4 sequence (Q60751 other isoform, or with tags, fused parts or gaps mutant limits assumed): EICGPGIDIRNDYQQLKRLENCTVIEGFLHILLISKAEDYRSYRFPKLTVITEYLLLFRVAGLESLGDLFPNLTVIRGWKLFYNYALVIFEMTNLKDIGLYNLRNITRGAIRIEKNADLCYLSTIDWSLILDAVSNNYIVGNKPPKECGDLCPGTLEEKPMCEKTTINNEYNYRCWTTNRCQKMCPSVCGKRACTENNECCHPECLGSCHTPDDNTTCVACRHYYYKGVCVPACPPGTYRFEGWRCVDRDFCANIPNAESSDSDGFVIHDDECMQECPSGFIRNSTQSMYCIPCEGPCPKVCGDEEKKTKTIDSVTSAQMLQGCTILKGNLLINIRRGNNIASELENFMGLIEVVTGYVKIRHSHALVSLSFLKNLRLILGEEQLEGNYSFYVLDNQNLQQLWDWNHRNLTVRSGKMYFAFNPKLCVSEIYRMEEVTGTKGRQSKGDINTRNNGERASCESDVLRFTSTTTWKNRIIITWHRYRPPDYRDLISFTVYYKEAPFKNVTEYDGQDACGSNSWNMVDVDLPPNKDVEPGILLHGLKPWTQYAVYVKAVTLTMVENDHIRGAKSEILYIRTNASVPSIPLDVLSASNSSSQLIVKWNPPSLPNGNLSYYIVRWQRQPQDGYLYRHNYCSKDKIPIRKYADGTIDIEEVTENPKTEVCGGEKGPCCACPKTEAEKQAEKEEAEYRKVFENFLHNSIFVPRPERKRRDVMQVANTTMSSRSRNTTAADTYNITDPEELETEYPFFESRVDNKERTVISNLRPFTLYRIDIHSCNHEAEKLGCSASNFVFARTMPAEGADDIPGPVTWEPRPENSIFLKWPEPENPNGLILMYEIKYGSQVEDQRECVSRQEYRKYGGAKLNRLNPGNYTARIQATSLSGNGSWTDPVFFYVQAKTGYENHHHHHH

B1: c208F2 (antibody, human IgG1, kappa, V domains shown)
VH: QVQLQQSGPELVKPGASVKMSCKASGYTFTSYYIYWVKQRPGQGLEWLGWIWPGDGSTKYNEKFKDKTTLTADKSSNTAYMFLSSLTSEDSAVYFCASPMITPNYAMDYWGQGASVTVSS
VL: DIQMTQTTSSLSASLGDRVTISCRASQDISKYLNWYQQQPDGTIKLLIYYTSRLHSGVPSRFSGRGSGTDYSLTISNVEQEDIATYFCQQGSTLPYTFGGGTKLEIKR
notes: group G2; also called chimeric 208F2
What is called EC50 is the midpoint of the concentration-response curve. In general, Kd refers to the free concentration of one partner at which half of the binding sites on the other are occupied at equilibrium, for simple one-to-one binding. For the molecule B1, the “hIGF-1R phosphorylation, % of that induced by IGF-1 (MCF-7, Ab 10 µg/ml)” value in experiment [1] is below 20%. Moreover, the Bmax came out at 981 MFI in experiment [2] and 2010 MFI in [5]. Also, the EC50 in experiment [2] amounted to 0.67 nM; in experiment [5], 0.32 nM; in experiment [7], 0.532 nM; in [8] it was 0.657 nM. Besides, in experiment [3], the “% Internalization (MCF-7, 10 µg/ml, 4 h)” value was found to be 83%. Moreover, the ΔMFI in experiment [3] came to 288 MFI; in experiment [4], 52 MFI. Besides, the “% internalisation” value in experiment [4] came to 67%. Moreover, the figures for the Kd in [6] and in experiment [9] were 0.22 nM and 0.17 nM, respectively. Further, the binding result is given as “no binding” in experiment [10] and “binds” in [11].

These data come from US20170267766A1 (PIERRE FABRE MEDICAMENT, published 2017).
